Assay results from IntAct's records for PubMed 18434552.

B1: Tyrosine-protein phosphatase non-receptor type 23 (Homo sapiens), Q9H3S7 (parent)
chain: MEAVPRMPMIWLDLKEAGDFHFQPAVKKFVLKNYGENPEAYNEELKKLELLRQNAVRVPRDFEGCSVLRKYLGQLHYLQSRVPMGSGQEAAVPVTWTEIFSGKSVAHEDIKYEQACILYNLGALHSMLGAMDKRVSEEGMKVSCTHFQCAAGAFAYLREHFPQAYSVDMSRQILTLNVNLMLGQAQECLLEKSMLDNRKSFLVARISAQVVDYYKEACRALENPDTASLLGRIQKDWKKLVQMKIYYFAAVAHLHMGKQAEEQQKFGERVAYFQSALDKLNEAIKLAKGQPDTVQDALRFTMDVIGGKYNSAKKDNDFIYHEAVPALDTLQPVKGAPLVKPLPVNPTDPAVTGPDIFAKLVPMAAHEASSLYSEEKAKLLREMMAKIEDKNEVLDQFMDSMQLDPETVDNLDAYSHIPPQLMEKCAALSVRPDTVRNLVQSMQVLSGVFTDVEASLKDIRDLLEEDELLEQKFQEAVGQAGAISITSKAELAEVRREWAKYMEVHEKASFTNSELHRAMNLHVGNLRLLSGPLDQVRAALPTPALSPEDKAVLQNLKRILAKVQEMRDQRVSLEQQLRELIQKDDITASLVTTDHSEMKKLFEEQLKKYDQLKVYLEQNLAAQDRVLCALTEANVQYAAVRRVLSDLDQKWNSTLQTLVASYEAYEDLMKKSQEGRDFYADLESKVAALLERTQSTCQAREAARQQLLDRELKKKPPPRPTAPKPLLPRREESEAVEAGDPPEELRSLPPDMVAGPRLPDTFLGSATPLHFPPSPFPSSTGPGPHYLSGPLPPGTYSGPTQLIQPRAPGPHAMPVAPGPALYPAPAYTPELGLVPRSSPQHGVVSSPYVGVGPAPPVAGLPSAPPPQFSGPELAMAVRPATTTVDSIQAPIPSHTAPRPNPTPAPPPPCFPVPPPQPLPTPYTYPAGAKQPIPAQHHFSSGIPAGFPAPRIGPQPQPHPQPHPSQAFGPQPPQQPLPLQHPHLFPPQAPGLLPPQSPYPYAPQPGVLGQPPPPLHTQLYPGPAQDPLPAHSGALPFPSPGPPQPPHPPLAYGPAPSTRPMGPQAAPLTIRGPSSAGQSTPSPHLVPSPAPSPGPGPVPPRPPAAEPPPCLRRGAAAADLLSSSPESQHGGTQSPGGGQPLLQPTKVDAAEGRRPQALRLIERDPYEHPERLRQLQQELEAFRGQLGDVGALDTVWRELQDAQEHDARGRSIAIARCYSLKNRHQDVMPYDSNRVVLRSGKDDYINASCVEGLSPYCPPLVATQAPLPGTAADFWLMVHEQKVSVIVMLVSEAEMEKQKVARYFPTERGQPMVHGALSLALSSVRSTETHVERVLSLQFRDQSLKRSLVHLHFPTWPELGLPDSPSNLLRFIQEVHAHYLHQRPLHTPIIVHCSSGVGRTGAFALLYAAVQEVEAGNGIPELPQLVRRMRQQRKHMLQEKLHLRFCYEAVVRHVEQVLQRHGVPPPCKPLASASISQKNHLPQDSQDLVLGGDVPISSIQATIAKLSIRPPGGLESPVASLPGPAEPPGLPPASLPESTPIPSSSPPPLSSPLPEAPQPKEEPPVPEAPSSGPPSSSLELLASLTPEAFSLDSSLRGKQRMSKHNFLQAHNGQGLRATRPSDDPLSLLDPLWTLNKT
partner: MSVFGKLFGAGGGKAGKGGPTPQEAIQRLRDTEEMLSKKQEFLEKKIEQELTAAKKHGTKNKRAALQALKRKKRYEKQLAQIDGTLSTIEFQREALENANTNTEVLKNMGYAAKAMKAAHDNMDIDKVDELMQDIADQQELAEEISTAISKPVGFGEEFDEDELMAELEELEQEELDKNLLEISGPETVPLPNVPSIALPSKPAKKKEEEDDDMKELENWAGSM

Variants of: B1
Conditions: with chm4b_human CHMP4B

Row | effect of a mutation on the interaction | Variant
1 | disrupting interaction | L202D
2 | disrupting interaction | L202D;I206D
